From PMC8067585

Biological target: CePoFUT1 single mutant M172C, singly labelled with ATTO488 or ATTO647N (Caenorhabditis elegans) (UniProt Q18014)
Assay: single-molecule fluorescence coincidence (dual-colour PIE); CePoFUT1-A488 and CePoFUT1-A647N incubated 1:1 at 1 uM for 30 min in 10 mM Tris, 1 mM EDTA, 0.005% Tween 20, pH 8.5, diluted to 40 pM; substrates at 15-fold molar excess where added; monomer to dimer

Substance: CePoFUT1 single mutant M172C, singly labelled with ATTO488 or ATTO647N (from UniProt Q18014 26-383) (enzyme)
- percent dimers (free form): 6.2%
- percent dimers (with GDP and HsEGF11-12-13): 4.6%
- percent dimers (with HsEGF11-12-13): 6.7%
- percent dimers (with HsEGF12): 6.8%
- percent of total protein in a dimeric state: 4 to 6%
- stoichiometry N: 2
